In the domain aggregation screens of Martell et al. (2025):

Assay: soluble fraction after stress (log2 fold change); higher = more stays soluble; pooled small domains, quantitative proteomics
Settings: stress: pH 4
How it was run: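 Following acid stress at pH 4, the amount of each small protein domain still soluble was measured in pooled custom libraries by high-throughput quantitative proteomics. Its fold change, on a log2 scale, is higher when more of the domain stayed soluble. This fold change is taken as a measure of aggregation propensity.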

Sequence	soluble fraction (log2)
HMGSIRDIIVQYLSKFDDPQPAAKIVEYVQQYRDTTESSIRSSMGSGDQFVQFSGGLYGLKDKTYAAWYSI	-0.383
HMRDPLNTGFRQTLKDIVNSLPKNELYSPGVREEYIYPKIGVTSLGMEASMVLNGLISSRRKNIELKEKN	0.179
HMQANLPFSELLADVDRGLISDVTIKGDQVSGHYTDGRTFNTFIPPEADLVRRLTEKNVRIAAVPD	-0.00341
HMETKPTELMLDVHKLRIGMFVYLDLGWMDHPFPLNRFKISTNAQIEQIKGLRLKQVKVMTALSDPASLL	-0.637
HMKSSTEIIYSDFLREVSNGQISEVTIQGDFVRGLFLSGSSFQTYAPKDSNLINILRDKKVRIKVHPP	-0.11
HMKKHALFTLFKHHNANGTTVWYARFWDDATQRYAIARSTGVLAQGKRERHDEAITVAREMASSIQFS	0.264
HMKTLGMDKGVNIALNDAGLRAEDVSNLSAHYDTEDGVPVYEIKFTAGGFSYEYQIKASDGTIIEADRDAA	-0.0393
HMKKYLNIYNIIVNKIESKEYQSNDKLPSEKELMDQYNVSRDTVRKSLNMLEQNGYIQKTKGKGSFVLDIN	0.409
HMAGTRRFELVEGSSSKFWEVTVADGSYTVTYGRIGTAGGSKTTESATAEADAEKLVREKLKKGYQEAGAA	0.128
HMKTFQSYQTTSMSNVNLRKRANGTSTILKRIKVGDTVTVVGKSGNYYQIQFDGKEGYALIKYIDGTDSGA	-0.107
HMTKQEYLNQLKNELVKQGVADAEDVVTEYEQHFAFKLADGFGEEEIAKKLGDPAAIASQFVG	-1.16
HMGTAEDYLLPRRAEILSIIRDHEFANFDLIRRRFLAVNERTLRYDLKKLSDLGLIKKLGKTRGVYYRAAK	≥ 0.43
HMDIVLPFSFAKRHGVVLSERQGETELLYLKGLPVRVLAEARRVLRQEFTVRQVEQAVFDKALSESYQN	-0.591
HMRLSAADLQSYLKGMDYPASRQDLIAHARGHNAPEEAVATLEQFSDRTYRSAADVSVEFGRE	0.309
HMTNVIPKAMAPFNGSTIIADGIKNIKDHIDNLYITVGYKGATLSEHVINKGVSAVFNTTGKGNAWWVYN	0.00444
HMSQDTLIGRVGVIVIGQARTGSPAQVRVKDGFGQTHYVMAEPDSEGVLKQGEAVLLVSLEGNTFKAILNP	≥ 0.43
HMTKIKAIFFDIDGTIRSFKTKTIPENTANTLKKLKEQGIKIFIATGRAPFHTTFLNDLLDFKFDGYITIN	-0.0405
HMEQTMNDMLKLVDLLPQNQQDIVRMRFYENMSFKEIAESNQISINTALGRMRYAILNLRKYAAERNL	-1.57
HMLSNLYAVLGVGRRATPDEITAAFDAWNARADAGEPIDDPLWERVRYAWDVLSSPSRRDLYDSLVDDATG	-2.25
HMTTLAADFNSDGRVDIGDLSILAGNWGKSRTNEVDFNKYGDADYNGRIDIIDLSILATQFGQTDNSN	-0.142
HMDKKEFGKRLKNLRIRNKMSQQAMADSLGYTSRSTINKIEEGINEMSYDKIVRLMELYGLSRPDLGLEPI	-0.157
HMQISDTTELSTLITKVLSEQSDALVDFKNPKKQKQVIGYLTGQVLRASQGKANPGLVRSLLEEQLSALDS	0.0677
HMLKQLGRQEGRQEGAVDALRTVLALQIEQRFGPLDPTVQALIVAADIDALQRALSRVAVVSDLGAVFPP	-0.862
HMVQPSAAVRAHPVGAFVEQRQGLSDDQILALQKKWNEGIYARIQGTRWFLFSKDTPAVTSLLLVPDLP	-0.0222
HMVQMNMLELQEEMQRDRSWIIKHLFQDEYFRRKIAKFSQFPINDSGKYLFHRKSMLKFLNDYAEEIVER	-1.46

Sequence	soluble fraction (log2)
HMTDNSTTTIRNLKIEWLLEEIRNAVRTGVSVDAAVERISNNPFVKPPEDLLNEARIIFLQNAGQI	-0.848
HMRLPNHYGSVVKLSGKRRRPFMVRGGVYGYDDRGYPQYVIVGYTETREQGLTMLAEYNRNP	-0.319
HMYSRQRDLILKALRENVVHPTADFIYTVLKEKEPNLSLATVYRNLNLLANEGIIRKIEGLDGVAHFDH	0.059
HMNNIGSKIKSAKILNNLDDNQLSEITGIDKLQLRSIQDGQVNPTKMELEIISKALKLPTNYFTK	0.154
HMTYSEEEIERDLYVRGTLYQIGDLVENKIDGTSGEIVRRGPNYVQYSDGENFYKAFLHSIQEV	-1.45
HMDAYLPETVQKLLDVMDFDVPYSAAQLMEKLGLKSRASFRKLYLLPALEKNLIAMGVPDKPTSRNQTYIR	0.169
HMNKEVDLPNFVGMTKENAQAQADKIKIKLEFEEEYSSDVEEGKIISQNPEYKENYKIKEKSTVSLKI	0.0516
HMNINLNVGKRLKSIRQNKELSLDEVSNLTNVSKPALAQIERGASSPTINTLWKISKGLKVPLSYFLQE	≥ 0.43
HMQLDLNENEKIIFEILQNNKTMQLSNLKTQTELSNKGWDKAIKSLTKQGLAKVSKIDNELIVEFL	-0.723
HMDQHPYGEDSFRGDNPPAGFDIKGNEDSMKFHEPSSPWYGRTIAEVWFRSAAAAEAAGFVNAV	-0.0254
HMKTMSLSSIEKAIYKTKYENEPTSQRLSRIESSVFGTNFSQDSESERIARISSAINAQKSAK	0.22
HMKRVPFAFAGDMLRWAAWLYHVEKRTQNEIAEELEVSRQTVANYLSEAMSQGLVQVQLRSDIIE	-1.39
HMDDNRSLSDLAQQVFKRENIQVSRDTLSLLVSRLGSDRAVSRQEIEKLALFAGSNGKLTEEDIHNALG	-0.195
HMAYVDWYENKQPTHEEAFKKLLGRIHPGAIVLLHSTSKTNGEILDELLTKWEEMGYRFGTLDELTGN	-1.14
HMPDPVHAAYLRLAVLLTEQAIGPQVTEQQIRDRFALTRRQTSDLMGRLIREGIAEKRAGYGWNINTELTA	-0.748
HMQGVNLTETEKNFIAQVLSPLLKQGQSLYQIRTNHPEIKLSVKTLYTYIESGIFKESGINNFSLRRQ	-0.319
HMKQAVESAEAIFEEIARIKKLSLVKSEAEEIARKTGLQKFTIASQLLKNQHAYEMDESEIASLWDKKI	-0.594
HMKRISDEDLLVMRRIDEVHTYHPTWGYRTITRILRRDDHLLINPKKVRRIMRDMGIYTIYPK	-0.41
HMRKTYHVDAYQDDKWWVLQVQEMPNAISQVKSLDQADEWIREAINIVSNEPEDSFDVVIIPV	-1.54
HMESENANVNRAMLTGIASMHAGQLETALNKFNEVIQLAPDFAEGWNKRATIFYLMKKFDRSVNDIAQTLK	-0.741
HMDRENNITAGREILEKELSRLALNMKMVNLQDYAARFNVKHSDDILAGIGAGDIRPAHIVNAIAEKLT	-0.304
HMEDNKLKNEIKNELVSHLEKPYSVEDLADALKYHGSAAFKLIVQELAILERERAVVVTHDGNFKINSS	-0.0181
HMGHTVHAVPEAADRQRLDVFVGNLHPTISRAYIQKLSKEDQILVNGKPEKAGFKLRTGHSVSVPDMSE	0.177
HMSKTEEIAYTTFVKYLENKDIEEVYLGNNAKIKVILKDGREMITDNPRTADFKKDLLLHDIKVVEKT	≥ 0.43
HMNSNSLSFSKFMQEVEAGRVIEVQIKGNDIQGELSDGSKFKTYSPNYPNLVDKLSENKVSIVATPL	0.105

Sequence	soluble fraction (log2)
HMNIAEIGQKVAQQRVALGISQERLAKLSDLSRSTIHHLEHGTLHEIGAAKLFKLLSLLDIQLK	0.159
HMDTSAHEVLSAIRSIIEDEDKRHPLSDEAITSRLSQQGYDIARRTVAKYRERLGLPVARLRRE	0.376
HMKKRDAEIMLQREFKLTEAIAMVRDRDIQELLPIALYFKVNINQPTAEIRYNLLNIAKSKTQEFIEAFD	-1.03
HMPYIVNHIHLKSEDPKITADWFVKAFNFEIVSDVVRHFGDRFIVTKAEGGMTINISGVRDGEEL	0.262
HMLQPQMKKFLNYESARNKMRPFGLSTRKEWRLFVDEGNRPADIPGDPYKKYKNKGWISWPHFLGK	0.0515
HMGMETQLSPKEKSIYTIIQNRPNIQSGEVSEKLAIPLPTVKRILSDLINKGLIEKQGSGRNVSYTI	0.241
HMKAFTKKELQDLVLNIFRASPTTNYNYKQLYKLIRGKDPEIKTLIIAVLLGLEKNGSILQMRPGKYKFS	-0.268
HMDTLKDFISGVSIVFENKYSVGDNVTIGDFRGDVIELGMKTTKIRAYTGEVLIIPNHLVEKVINH	-0.665
HMSIYDAPIEDLKFSTRIFNSLKRADIHTVADLIAHSRDDLMKVRNLGATSLDELIEKLGTHGLQLADP	-0.356
HMGDYERVPEYKGKLTSDLTMEDSQKFAFRFIWQNSDEDEGKIIDQDPPAGKSVAKGSEIVLYVSNG	-0.0695
HMEMDITIQMRTLVEELNRASDAYYNGRGELMTDYEWDAKFDQLKQLESQSGVVLPDSPTHRV	-1.51
HMQQLAEQIPTDRPYISIAEAVVLFGISRDTIYRQIRKGNIPAVNLGERLTRISRIHIEAMFPKV	-0.282
HMTLDEDYFYYTLKAKEGYYRLYKKLGVDRKIIDSLNPNLKEMGLQVGMVIRVPKSQTSDLSVKNSLLVE	-0.61
HMINITALVKQLGGVDISKFNSAFKLLQQGKPLNTISNKVMADTFVALMKNSDEALNTKFRAAFKKI	0.0515
HMASDLPTVTIMGKTFYTYVAKKGESFFGIANRFGWDPELLVKTNRELETPLDKGALIYYPVPKKPK	-0.521
HMDEFTIILEDAGSQKIAVIKEVRVLNSSLGLKEAKDLVDATPATIMEKADKATADKAKAAFEAAGAKVTI	-0.75
HMAVPTHVEFPVVGLQRSGITSLEQAIATVPGVSKAVVNVSDNRIFVDYDPTRSKVSDLLEVVRGAGFTP	-0.222
HMDDEAVQIMTLHISKGLEFDVVFALGLVSRTPESKEIEELEAEKQRQLYVAMTRAEKWLIVAA	0.22
HMNRREFQFSEGSSNKFWSIELRDQSFIVHYGKIGTNGQAQEKTFATADAAKKEHDKLIAEKTKKGYVEVQ	-0.691
HMGPEISEDAKVVFDRLKNHDEILLNNFKSEFDLSNKKWDKIIKELRGNDLISIIKSEDGNLFIKP	-0.293
HMSREQARRFYFDTWAKHRASQPLTDLEKIALTVMLLHPEYHSLLDKPDHYVDKDYSPEAGQTNPFLHM	-0.474
HMEENIKKDIEVPNIEGLTIDEAKKRLKEVNLNISIEDMEEKEGTEIITQQLPKAGIKVKEGVAIIAY	-0.211
HMGESVQVPSYVGMGFREAARKARARDFGVAVSDSIYVPGKPPGEIIAQDPKAESRVKEGRTIYFTVAK	-0.0612
HMSYTWHDMYLLAQEYQKEHGNLIIPRNYKGKNGLNLGYWLYKEKLKYRQGKLAPEKIIALEHIGIVWT	0.22
HMNVDSLVGSEARVTAEIDNRKETGTAMVNGQEWTARAESDEEIYPVGTIVEIRKIQGVKLIVSTH	0.18
